The values below come from PMC3260246 (PLoS ONE, 2012).

Where a chain is given by its changes, count along the chain named. Names may count otherwise.

The series deals with the molecule itself. The series is described as follows: multi-angle light scattering; molar mass and hydrodynamic radius of wild-type and R12A proteins, ASTRA 5.3.4; conditions as in refs 32, 58.

B1: wild-type human αB-crystallin (natural protein, UniProt P02511 1-175, looked up)
chain: MDIAIHHPWIRRPFFPFHSPSRLFDQFFGEHLLESDLFPTSTSLSPFYLRPPSFLRAPSWFDTGLSEMRLEKDRFSVNLDVKHFSPEELKVKVLGDVIEVHGKHEERQDEHGFISREFHRKYRIPADVDPLTITSSLSSDGVLTVNGPRKQVSGPERTIPITREEKPAVTAAPKK
notes: αB-crystallin, human; The reverse primer carries no stop codon; Large oligomer (molar mass about 4.8e5 g/mol by light scattering); also called αBWt; Wt αB-crystallin; source: E. coli BL21(DE3), purified (gel filtration, ion-exchange chromatography)
Take B1: the binding result is reported as “binds”.

B2: αB-crystallin R12A mutant (natural protein, human, UniProt P02511 1-175, looked up)
chain: B1 chain with R12A
notes: αB-crystallin, human, R12A made by site-directed mutagenesis on the Wt cDNA in pET23a; Same construct as m3 with R12A; also called αB_(R12A); source: E. coli BL21(DE3), purified (gel filtration, ion-exchange chromatography)
Regarding B2, the binding result is on record as “binds”.

B3: αA-crystallin R12A mutant (natural protein, human, UniProt P02489 1-173, looked up)
chain: MDVTIQHPWFKATLGPFYPSRLFDQFFGEGLFEYDLLPFLSSTISPYYRQSLFRTVLDSGISEVRSDRDKFVIFLDVKHFSPEDLTVKVQDDFVEIHGKHNERQDDHGYISREFHRRYRLPSNVDQSALSCSLSADGMLTFCGPKIQTGLDATHAERAIPVSREEKPTSAPSS
For the protein B3, the binding result was “binds”.
